Data on one molecule can be found in patent US11485776B2, “Antibodies against infectious diseases” (priority 2015, dated 2022).

Read-outs that look alike come from different tables or passages of the source.

Assay [1] deals with T1, CaENO1 (Candida albicans, UniProt P30575).
T1 construct: using full-length CaENO1 (1323 bp) as template; His (N); made in house; host or cells: E. coli BL21
The class given is binding, C. albicans. Here is the method:
(§1) (A) Purified CaS1 scFv was used to recognize recombinant CaENO1 protein. The CaS1 scFv were used as primary antibody with series dilution. The goat anti-chicken light chain IgG was used as secondary antibody. The HRP conjugated donkey anti-goat IgG was used to decet. (B) OD value was calculated into percentage. […] The goat anti-chicken light chain IgG was used as secondary antibody. The HRP conjugated donkey anti-goat IgG was used to detect. (D) We calculated OD value into percentage.
The goat anti-chicken light chain IgG was used as secondary antibody. The HRP conjugated donkey anti-goat IgG was used to decet. (B, D) OD value was calculated into percentage. […] ELISA data were represented as mean±SD of the duplicated well.
After vigorous washings, the bound IgY antibodies were detected by adding HRP-conjugated polyclonal donkey anti-chicken IgY antibodies (1:3,000) (Bethyl Laboratories, Montgomery, Tex., USA) while the bound CaS1 scFv antibodies were detected by goat anti-chicken light chain antibodies (1:3,000) (Bethyl Laboratories, Montgomery, Tex., USA), followed by HRP-conjugated donkey anti-goat IgG antibodies (Jackson ImmunoResearch, USA). After washing as above, a tetramethylbenzidine (TMB) substrate solution (Sigma, USA) was added to the wells for color development. The reaction was stopped with 1 N HCl and optical density was measured at 450 nm using an ELISA plate reader (BioTek Synergy HT). Dissociate constant (KD) was calculated according to the equation, grams/molecular weight (Da)×volume (L)^−1.
The goat anti-chicken light chain IgG was used as secondary antibody. The HRP conjugated donkey anti-goat IgG was used to decet (see FIGS. 14 (A) and (C)). OD value was calculated into percentage. […] ELISA data were represented as mean±SD of the duplicated well (see FIGS. 14 (B) and (D)).

Assay [2] has as its target T2, alpha-enolase on the surface of C. albicans (Candida albicans, UniProt P30575).
T2 construct: endogenous in cells; host or cells: C. albicans SC 5314 and clinical isolates CA6-17, CA7-26, CA7-3, CA10-50, CA7-30, CA10-65
In words: Immunofluorescence staining of C. albicans. The assay is classed as cell-based. An excerpt: Anti-CaENO1 antibodies were used to detect alpha-enolase protein on C. albicans cell surface ENO1. (1) Detected with anti-CaENO1 IgY and developed by FITC conjugation rabbit anti-chicken antibodies. (2) Detected with scFv CaS1 and developed by goat anti-chicken light chain antibodies and FITC rabbit anti-goat antibodies. (3) An irrelevant scFv was used on negative control.
Anti-CaENO1 IgY, scFv CaS1 and control scFv were used in immunofluorescence assay for identification of CaS1 antibody to alpha-enolase on cell surface of C. albicans.

In assay [3] the target is T1, CaENO1. The assay is classed as binding, C. albicans. Conditions: free form vs fixed form recombinant CaENO1. The method, then:
as §1

In assay [4] the target is T1, CaENO1. The assay can be described thus: Western blot on purified ENO1 protein of C. albicans. The class given is binding. An excerpt: (A) The total cell lysates of 5 Candida spp. were visualized on SDS-PAGE (left). After transferred onto the NC membranes, they were probed with purified anti-CaENO1 from 7th immunized chicken (1:3,000) (middle), or with CaS1 scFv (right) as described in material and methods. Lanes 1-6 in (A) contained the total cell lysates of C. albicans, C. krusei, C. tropicalis, C. parapsilosis and C. glabrate and purified recombinant CaENO1, respectively. […] (C) Total cell lysate from FLU^R and FLU^s and C. tropicalis (lanes 1-5 represent CT6-29, CT11-52, CT6-50, CT12-54, BCRC20520, respectively) by SDS-PAGE (left) and probed with CaS1 scFv by Western blot (right). (D) The purified ENO1 proteins of C. albicans, S. pneumonia, S. aureus, mouse and human were visualized on SDS-PAGE (left). After transferred onto the NC membranes, they were probed with purified CaS1 scFv (right) as described. Lane M contained protein markers.
Briefly, C. albicans alpha-enolase genes were constructed in pQE30 plasmids to form pQE30-CaENO1 vector, and then the resulting vectors were transformed with E. coli BL21 cells. The bacterial culture was grown in 10 ml LB medium containing ampicillin ([…]) at 37° C. overnight, diluted 10-fold in the same LB medium and further grown until the OD600 reached between 0.6 and 1.0. […]
A general note: Immunoblotting shows a protein as a band on a membrane.

T1 sequence (P30575 whole entry): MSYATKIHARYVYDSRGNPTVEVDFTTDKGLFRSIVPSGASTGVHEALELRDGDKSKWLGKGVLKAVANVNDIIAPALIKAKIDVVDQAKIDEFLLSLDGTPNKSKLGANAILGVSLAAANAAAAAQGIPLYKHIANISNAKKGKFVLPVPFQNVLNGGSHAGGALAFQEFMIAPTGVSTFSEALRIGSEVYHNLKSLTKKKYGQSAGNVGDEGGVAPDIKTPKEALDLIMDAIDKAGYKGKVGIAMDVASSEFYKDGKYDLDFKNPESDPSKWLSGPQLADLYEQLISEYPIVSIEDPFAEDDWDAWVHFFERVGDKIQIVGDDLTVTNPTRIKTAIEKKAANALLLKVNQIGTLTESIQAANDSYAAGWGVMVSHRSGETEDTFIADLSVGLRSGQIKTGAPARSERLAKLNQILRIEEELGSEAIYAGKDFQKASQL
T2 sequence (P30575 whole entry): as above

B1: CaS1 scFv: anti-CaENO1 scFv monoclonal antibody from chicken phage library; light chain SEQ ID NO:11, heavy chain SEQ ID NO:12 (antibody, V domains shown)
VH: TVTLDESGGGLQTPRGALSLVCKASGFTFIDYGMQWVRQAPGKGLEWVAGIGSSGSSTNYGAAVKGRATISRDDGQSTVRLQLNNLRAEDTGTYYCAKSAGGYCVNGAGCNGGSIDAWGHGTEVIVSS
VL: ALTQPSSVSANLGGTVKITCSGGSGSYGWYQQKSPGSAPVTVIYSNNQRPSNIPSRFSGSPSGSTGTLTITGVQADDEAVYFCGSRDSSYVGVFGAGTTLTVL
modifications: scFv linker; amino acid sequence comprised in a heavy chain of an anti-CaENO1 scFv monoclonal antibody (CaS1); amino acid sequence comprised in a light chain of an anti-CaENO1 scFv monoclonal antibody (CaS1)
A word on the Kd: it is the free concentration of one partner at which half of the binding sites on the other are occupied at equilibrium, for simple one-to-one binding. For B1, in assay [1], the “Binding activity to recombinant CaENO1 on ELISA” value is listed as “concentration dependent”. In addition, the “KD by ELISA” value in assay [1] (recombinant CaENO1 coated, KD or EC50 from OD percentage) turned out to be 0.498 µg/mL. In addition, the Kd in assay [1] (recombinant CaENO1 coated, KD or EC50 from OD percentage, read-out: KD by ELISA) stood at 18.8 nM; in assay [3] (read-out: KD by competitive ELISA), 89 nM. The “Binding to alpha-enolase on the surface of C. albicans (immunofluorescence)” value in assay [2] is on record as “bind”. In addition, the “KD by competitive ELISA” value in assay [3] amounted to 4.45 µg/mL. Besides, the “Binding to purified CaENO1 (Western blot)” value in assay [4] was “bind and recognizes”.
